Source: publication PMC4063868

Molecular target: histones (chicken (endogenous in LMH))
Assay: high-salt co-extraction with histones from chromatin; LMH cells 48 h post-transfection; chromatin pelleted and incubated in 50 mM Tris-HCl pH 8.0, 2.5 M NaCl, 0,05% NP40 for 30 min at 4°C; supernatant (histones fraction) on 10% SDS-PAGE, colloidal coomassie blue and immunoblot with anti-VP22 L13a

“VP22 of Marek's disease virus tagged with eGFP at its C-terminus (natural protein)” was tested, and the fold less VP22 in the histone extract than from peGFP-UL49 cells was 4.5 fold.
